According to paper doi:10.1101/2023.11.01.565197 (bioRxiv, 2023):

Molecular target: the molecule itself
Experiment: cryo-EM structure

B1: rabbit Slo1 (KCNMA1) (natural protein)
chain: not shown
B1 was tested, and the “stoichiometry N” value was 4.
